Measured values reported in patent publication US20240207421A1, “NERVE TARGETING PEPTIDES AND METHODS OF USE” (ALUME BIOSCIENCES, INC., priority 2020, published 2024).

Target: Laminin 421/521
Test: phage display, NGS count

Row | Binder | Count
1 | AHAAGRDMRQGT | 36
2 | QALRTNYSPLNS | 32
3 | WAYTDYM | 35
4 | CKWTQLWGC | 40
5 | CTWKHRDNC | 30
6 | GPLLFRG | 30
7 | HSTYAPG | 33
8 | CLHNGQRSC | 37
9 | LGPSTQGAGQTR | 38
10 | DWTQVRVTNWFL | 35
11 | SHDVANGTSVRT | 29
12 | CSRAGLSAC | 30
13 | QTFGYSMFNVRT | 30
14 | SLNTTWVSPMMK | 37
15 | GDAQILM | 38
16 | GHRTLVTSERYL | 38
17 | LARSSIMAANNV | 42
18 | WPMMQTR | 29
19 | CQGWPRPMC | 30
20 | CLKDTHLNC | 40
21 | WQWRSTELGYRY | 36
22 | NHDQGSLTRWRS | 31
23 | SLLSVVNTSSKS | 31
24 | TAPRWTQ | 30
25 | SVESNSKLTMPR | 29
26 | CTAWTRQEC | 31
27 | TFGSGRSMPIQY | 34

Row | Binder | Count
28 | VYRNGGGLPLTA | 34
29 | SYDGTMLKQVRL | 36
30 | FPLKIRT | 42
31 | CKSERGPEC | 30
32 | NDTGRHASGISK | 32
33 | CTPRSATLC | 37
34 | GGWQSLWDKPEH | 31
35 | ALPWQSGVHGTK | 34
36 | QGWKDRLPIWRY | 29
37 | ALKIGPETTIYM | 35
38 | CGETTAGKC | 33
39 | RNLHYPLNHPFM | 30
40 | TLKAGTRANDGV | 32
41 | LGHQNGGRADMW | 35
42 | WGWNGANMSPRG | 31
43 | SNPKHVSSLGQM | 40
44 | DVIHSSRGAYFE | 36
45 | NWTHLGVARLQP | 36
46 | DIMKSPRSNLRS | 37
47 | TFAAAQAELIMV | 38
48 | MTNSGAK | 35
49 | GQPRNIHLPGTH | 40
50 | VVPSWPSVHRPP | 31
51 | KASIAYD | 30
52 | WEEHRVEILPDV | 38
53 | AQGVWWSEWFAP | 42
54 | EYVKFSHSPRTY | 31

Row | Binder | Count
55 | QTFHEYLNPARG | 37
56 | CSSQAKRSC | 31
57 | LPMLRHS | 32
58 | LGYGQGTPHRSN | 30
59 | AQRMNQA | 38
60 | WGANTTGRTHGG | 40
61 | GPMLKNLSDAVT | 31
62 | SPDRTNWGWQTN | 29
63 | AKTQAPSNWSGV | 43
64 | CFQPKMNSC | 42
65 | QINWKQADKNAD | 33
66 | CSVWNSGNC | 43
67 | QGWEFQVPARHS | 30
68 | WRSPLTT | 30
69 | QGHPFIY | 40
70 | GSPEKRT | 30
71 | CHNADNNGC | 32
72 | WSPANGWRHQTI | 36
73 | CQTSGHHQC | 31
74 | GLLDWGSLQGGN | 30
75 | GSTTHPHFGLPG | 40
76 | CWSGNSRSC | 42
77 | ANRYLAS | 40
78 | GWIQDTFVLGRS | 40
79 | VPSYILR | 30
